Patent US20120135923A1 (IPSEN PHARMA S A S, published 2012)
Bridge positions count the residues as written; N and C are the ends. Square brackets hold non-standard residues; d marks the D form. 1Nal = N[C@@H](Cc1cccc2ccccc12)C(=O)O; 2Nal = N[C@@H](Cc1ccc2ccccc2c1)C(=O)O; d2Nal = N[C@H](Cc1ccc2ccccc2c1)C(=O)O; Bta = N[C@@H](Cc1csc2ccccc12)C(=O)O; βAla = NCCC(=O)O

B1: Ac-c(Cys-Glu-His-D-2-Nal-Arg-Bal-Ala-Cys)-Pro-Pro-Arg-Asp-β-[…]NH2 (peptide)
peptide: Ac-CEH[d2Nal]R[Bta]ACPPRD[βAla]RRRRRQRRR-NH2
modifications: disulfide 1-8
SMILES: CC(=O)N[C@H]1CSSC[C@@H](C(=O)N2CCC[C@H]2C(=O)N2CCC[C@H]2C(=O)N[C@@H](CCCNC(=N)N)C(=O)N[C@@H](CC(=O)O)C(=O)NCCC(=O)N[C@@H](CCCNC(=N)N)C(=O)N[C@@H](CCCNC(=N)N)C(=O)N[C@@H](CCCNC(=N)N)C(=O)N[C@@H](CCCNC(=N)N)C(=O)N[C@@H](CCCNC(=N)N)C(=O)N[C@@H](CCC(N)=O)C(=O)N[C@@H](CCCNC(=N)N)C(=O)N[C@@H](CCCNC(=N)N)C(=O)N[C@@H](CCCNC(=N)N)C(N)=O)NC(=O)[C@H](C)NC(=O)[C@H](Cc2csc3ccccc23)NC(=O)[C@H](CCCNC(=N)N)NC(=O)[C@@H](Cc2ccc3ccccc3c2)NC(=O)[C@H](Cc2c[nH]cn2)NC(=O)[C@H](CCC(=O)O)NC1=O
B2: Ac-c(Cys-Glu-His-D-2-Nal-Arg-Bal-Ala-Cys)-Pro-Pro-Lys-Asp-β-[…]NH2 (peptide)
peptide: Ac-CEH[d2Nal]R[Bta]ACPPKD[βAla]RKRRRQRRR-NH2
modifications: disulfide 1-8
SMILES: CC(=O)N[C@H]1CSSC[C@@H](C(=O)N2CCC[C@H]2C(=O)N2CCC[C@H]2C(=O)N[C@@H](CCCCN)C(=O)N[C@@H](CC(=O)O)C(=O)NCCC(=O)N[C@@H](CCCNC(=N)N)C(=O)N[C@@H](CCCCN)C(=O)N[C@@H](CCCNC(=N)N)C(=O)N[C@@H](CCCNC(=N)N)C(=O)N[C@@H](CCCNC(=N)N)C(=O)N[C@@H](CCC(N)=O)C(=O)N[C@@H](CCCNC(=N)N)C(=O)N[C@@H](CCCNC(=N)N)C(=O)N[C@@H](CCCNC(=N)N)C(N)=O)NC(=O)[C@H](C)NC(=O)[C@H](Cc2csc3ccccc23)NC(=O)[C@H](CCCNC(=N)N)NC(=O)[C@@H](Cc2ccc3ccccc3c2)NC(=O)[C@H](Cc2c[nH]cn2)NC(=O)[C@H](CCC(=O)O)NC1=O
B3: Ac-c(Cys-Glu-His-D-2-Nal-Arg-1-Nal-Ala-Cys)-Pro-Pro-Lys-Asp-β-[…]NH2 (peptide)
peptide: Ac-CEH[d2Nal]R[1Nal]ACPPKD[βAla]GRRKRRQRRR-NH2
modifications: disulfide 1-8
SMILES: CC(=O)N[C@H]1CSSC[C@@H](C(=O)N2CCC[C@H]2C(=O)N2CCC[C@H]2C(=O)N[C@@H](CCCCN)C(=O)N[C@@H](CC(=O)O)C(=O)NCCC(=O)NCC(=O)N[C@@H](CCCNC(=N)N)C(=O)N[C@@H](CCCNC(=N)N)C(=O)N[C@@H](CCCCN)C(=O)N[C@@H](CCCNC(=N)N)C(=O)N[C@@H](CCCNC(=N)N)C(=O)N[C@@H](CCC(N)=O)C(=O)N[C@@H](CCCNC(=N)N)C(=O)N[C@@H](CCCNC(=N)N)C(=O)N[C@@H](CCCNC(=N)N)C(N)=O)NC(=O)[C@H](C)NC(=O)[C@H](Cc2cccc3ccccc23)NC(=O)[C@H](CCCNC(=N)N)NC(=O)[C@@H](Cc2ccc3ccccc3c2)NC(=O)[C@H](Cc2c[nH]cn2)NC(=O)[C@H](CCC(=O)O)NC1=O
B4: Ac-c(Cys-Glu-His-D-2-Nal-Arg-1-Nal-Ala-Cys)-Pro-Pro-Lys-Asp-β-[…]NH2 (peptide)
peptide: Ac-CEH[d2Nal]R[1Nal]ACPPKD[βAla]GRKRRRQRRR-NH2
modifications: disulfide 1-8
SMILES: CC(=O)N[C@H]1CSSC[C@@H](C(=O)N2CCC[C@H]2C(=O)N2CCC[C@H]2C(=O)N[C@@H](CCCCN)C(=O)N[C@@H](CC(=O)O)C(=O)NCCC(=O)NCC(=O)N[C@@H](CCCNC(=N)N)C(=O)N[C@@H](CCCCN)C(=O)N[C@@H](CCCNC(=N)N)C(=O)N[C@@H](CCCNC(=N)N)C(=O)N[C@@H](CCCNC(=N)N)C(=O)N[C@@H](CCC(N)=O)C(=O)N[C@@H](CCCNC(=N)N)C(=O)N[C@@H](CCCNC(=N)N)C(=O)N[C@@H](CCCNC(=N)N)C(N)=O)NC(=O)[C@H](C)NC(=O)[C@H](Cc2cccc3ccccc23)NC(=O)[C@H](CCCNC(=N)N)NC(=O)[C@@H](Cc2ccc3ccccc3c2)NC(=O)[C@H](Cc2c[nH]cn2)NC(=O)[C@H](CCC(=O)O)NC1=O
B5: Ac-c(Cys-Glu-His-D-2-Nal-Arg-Bal-Ala-Cys)-Pro-Pro-Lys-Asp-β-[…]NH2 (peptide)
peptide: Ac-CEH[d2Nal]R[Bta]ACPPKD[βAla]GRRKRRQRRR-NH2
modifications: disulfide 1-8
SMILES: CC(=O)N[C@H]1CSSC[C@@H](C(=O)N2CCC[C@H]2C(=O)N2CCC[C@H]2C(=O)N[C@@H](CCCCN)C(=O)N[C@@H](CC(=O)O)C(=O)NCCC(=O)NCC(=O)N[C@@H](CCCNC(=N)N)C(=O)N[C@@H](CCCNC(=N)N)C(=O)N[C@@H](CCCCN)C(=O)N[C@@H](CCCNC(=N)N)C(=O)N[C@@H](CCCNC(=N)N)C(=O)N[C@@H](CCC(N)=O)C(=O)N[C@@H](CCCNC(=N)N)C(=O)N[C@@H](CCCNC(=N)N)C(=O)N[C@@H](CCCNC(=N)N)C(N)=O)NC(=O)[C@H](C)NC(=O)[C@H](Cc2csc3ccccc23)NC(=O)[C@H](CCCNC(=N)N)NC(=O)[C@@H](Cc2ccc3ccccc3c2)NC(=O)[C@H](Cc2c[nH]cn2)NC(=O)[C@H](CCC(=O)O)NC1=O
B6: Ac-c(Cys-Glu-His-D-2-Nal-Arg-2-Nal-Ala-Cys)-Pro-Pro-Lys-Asp-β-[…]NH2 (peptide)
peptide: Ac-CEH[d2Nal]R[2Nal]ACPPKD[βAla]GRRKRRQRRR-NH2
modifications: disulfide 1-8
SMILES: CC(=O)N[C@H]1CSSC[C@@H](C(=O)N2CCC[C@H]2C(=O)N2CCC[C@H]2C(=O)N[C@@H](CCCCN)C(=O)N[C@@H](CC(=O)O)C(=O)NCCC(=O)NCC(=O)N[C@@H](CCCNC(=N)N)C(=O)N[C@@H](CCCNC(=N)N)C(=O)N[C@@H](CCCCN)C(=O)N[C@@H](CCCNC(=N)N)C(=O)N[C@@H](CCCNC(=N)N)C(=O)N[C@@H](CCC(N)=O)C(=O)N[C@@H](CCCNC(=N)N)C(=O)N[C@@H](CCCNC(=N)N)C(=O)N[C@@H](CCCNC(=N)N)C(N)=O)NC(=O)[C@H](C)NC(=O)[C@H](Cc2ccc3ccccc3c2)NC(=O)[C@H](CCCNC(=N)N)NC(=O)[C@@H](Cc2ccc3ccccc3c2)NC(=O)[C@H](Cc2c[nH]cn2)NC(=O)[C@H](CCC(=O)O)NC1=O
B7: Ac-c(Cys-Glu-His-D-2-Nal-Arg-Bal-Ala-Cys)-Pro-Pro-Lys-Asp-β-[…]NH2 (peptide)
peptide: Ac-CEH[d2Nal]R[Bta]ACPPKD[βAla]GRKRRRQRRR-NH2
modifications: disulfide 1-8
SMILES: CC(=O)N[C@H]1CSSC[C@@H](C(=O)N2CCC[C@H]2C(=O)N2CCC[C@H]2C(=O)N[C@@H](CCCCN)C(=O)N[C@@H](CC(=O)O)C(=O)NCCC(=O)NCC(=O)N[C@@H](CCCNC(=N)N)C(=O)N[C@@H](CCCCN)C(=O)N[C@@H](CCCNC(=N)N)C(=O)N[C@@H](CCCNC(=N)N)C(=O)N[C@@H](CCCNC(=N)N)C(=O)N[C@@H](CCC(N)=O)C(=O)N[C@@H](CCCNC(=N)N)C(=O)N[C@@H](CCCNC(=N)N)C(=O)N[C@@H](CCCNC(=N)N)C(N)=O)NC(=O)[C@H](C)NC(=O)[C@H](Cc2csc3ccccc23)NC(=O)[C@H](CCCNC(=N)N)NC(=O)[C@@H](Cc2ccc3ccccc3c2)NC(=O)[C@H](Cc2c[nH]cn2)NC(=O)[C@H](CCC(=O)O)NC1=O
B8: Ac-c(Cys-Glu-His-D-2-Nal-Arg-Bal-Ala-Cys)-Pro-Pro-Arg-Asp-β-[…]NH2 (peptide)
peptide: Ac-CEH[d2Nal]R[Bta]ACPPRD[βAla]RRRRRRQRRR-NH2
modifications: disulfide 1-8
SMILES: CC(=O)N[C@H]1CSSC[C@@H](C(=O)N2CCC[C@H]2C(=O)N2CCC[C@H]2C(=O)N[C@@H](CCCNC(=N)N)C(=O)N[C@@H](CC(=O)O)C(=O)NCCC(=O)N[C@@H](CCCNC(=N)N)C(=O)N[C@@H](CCCNC(=N)N)C(=O)N[C@@H](CCCNC(=N)N)C(=O)N[C@@H](CCCNC(=N)N)C(=O)N[C@@H](CCCNC(=N)N)C(=O)N[C@@H](CCCNC(=N)N)C(=O)N[C@@H](CCC(N)=O)C(=O)N[C@@H](CCCNC(=N)N)C(=O)N[C@@H](CCCNC(=N)N)C(=O)N[C@@H](CCCNC(=N)N)C(N)=O)NC(=O)[C@H](C)NC(=O)[C@H](Cc2csc3ccccc23)NC(=O)[C@H](CCCNC(=N)N)NC(=O)[C@@H](Cc2ccc3ccccc3c2)NC(=O)[C@H](Cc2c[nH]cn2)NC(=O)[C@H](CCC(=O)O)NC1=O

What follows are binders tested against T1, human melanocortin receptor subtype 1 (hMC1-R) (human, UniProt Q01726 1-317) (assay: [125I]-NDP-α-MSH competition, membranes).
T1 construct: whole, on cells; membranes of CHO-K1 cells
T1 sequence (Q01726 whole entry): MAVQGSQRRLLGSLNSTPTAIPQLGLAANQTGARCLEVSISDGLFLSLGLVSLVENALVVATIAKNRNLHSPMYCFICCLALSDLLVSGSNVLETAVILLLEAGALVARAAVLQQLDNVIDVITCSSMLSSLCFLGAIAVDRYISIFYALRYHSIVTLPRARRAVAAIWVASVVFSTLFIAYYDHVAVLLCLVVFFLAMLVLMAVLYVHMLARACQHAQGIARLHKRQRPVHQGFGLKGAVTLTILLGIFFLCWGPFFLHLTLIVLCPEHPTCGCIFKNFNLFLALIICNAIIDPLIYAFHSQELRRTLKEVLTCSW

Row | Binder | Ki
1 | B1 | 4.11 nM
2 | B2 | 3.28 nM
3 | Ac-CEH[d2Nal]R[Bta]ACPPKD[βAla]GRRRRRQRRR-NH2 (disulfide 1-8) | 12.8 nM
4 | B3 | 1.81 nM
5 | B4 | 2.69 nM
6 | Ac-CEH[d2Nal]R[1Nal]ACPPKD[βAla]RRRRRRQRRR-NH2 (disulfide 1-8) | 6.66 nM
7 | B5 | 2.5 nM
8 | Ac-CEH[d2Nal]R[Bta]ACPPKD[βAla]RRRRRRQRRR-NH2 (disulfide 1-8) | 6.77 nM
9 | B6 | 2.71 nM
10 | B7 | 4.29 nM
11 | B8 | 7.32 nM

These binders were tested against T2, human melanocortin receptor subtype 3 (hMC3-R) (human, UniProt P41968 1-323) (assay: [125I]-NDP-α-MSH competition, membranes).
T2 construct: whole, on cells; membranes of CHO-K1 cells
T2 sequence (P41968 whole entry): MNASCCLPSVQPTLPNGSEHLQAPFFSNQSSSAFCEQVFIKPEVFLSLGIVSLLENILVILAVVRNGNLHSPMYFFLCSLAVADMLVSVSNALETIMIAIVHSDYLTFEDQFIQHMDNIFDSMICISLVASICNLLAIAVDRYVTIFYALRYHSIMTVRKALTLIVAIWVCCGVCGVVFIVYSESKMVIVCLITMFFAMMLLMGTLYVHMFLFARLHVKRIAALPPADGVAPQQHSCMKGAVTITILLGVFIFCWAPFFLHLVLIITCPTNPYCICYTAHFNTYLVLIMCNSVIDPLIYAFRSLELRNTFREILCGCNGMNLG

Row | Binder | Ki
12 | B1 | 7.26 nM
13 | B2 | 1.95 nM
14 | Ac-CEH[d2Nal]R[Bta]ACPPKD[βAla]GRRRRRQRRR-NH2 (disulfide 1-8) | 15.9 nM
15 | B3 | 2.08 nM
16 | B4 | 2.59 nM
17 | Ac-CEH[d2Nal]R[1Nal]ACPPKD[βAla]RRRRRRQRRR-NH2 (disulfide 1-8) | 19.3 nM
18 | B5 | 1.59 nM
19 | Ac-CEH[d2Nal]R[Bta]ACPPKD[βAla]RRRRRRQRRR-NH2 (disulfide 1-8) | 14.3 nM
20 | B6 | 0.732 nM
21 | B7 | 2.15 nM
22 | B8 | 11 nM

These binders were tested against T3, human melanocortin receptor subtype 4 (hMC4-R) (human, UniProt P32245 1-332) (assay: [125I]-NDP-α-MSH competition, membranes).
T3 construct: whole, on cells; membranes of CHO-K1 cells
T3 sequence (P32245 whole entry): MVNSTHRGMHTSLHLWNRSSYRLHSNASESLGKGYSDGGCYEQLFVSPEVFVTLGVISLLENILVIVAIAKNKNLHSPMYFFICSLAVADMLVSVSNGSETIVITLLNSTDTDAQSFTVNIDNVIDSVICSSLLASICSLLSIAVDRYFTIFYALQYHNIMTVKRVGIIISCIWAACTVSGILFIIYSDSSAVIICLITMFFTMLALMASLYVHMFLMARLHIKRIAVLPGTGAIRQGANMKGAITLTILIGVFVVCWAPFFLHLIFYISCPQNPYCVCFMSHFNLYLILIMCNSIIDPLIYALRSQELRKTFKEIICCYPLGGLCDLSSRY

Row | Binder | Ki
23 | B1 | 0.302 nM
24 | B2 | 0.575 nM
25 | Ac-CEH[d2Nal]R[Bta]ACPPKD[βAla]GRRRRRQRRR-NH2 (disulfide 1-8) | 0.95 nM
26 | B3 | 0.305 nM
27 | B4 | 0.243 nM
28 | Ac-CEH[d2Nal]R[1Nal]ACPPKD[βAla]RRRRRRQRRR-NH2 (disulfide 1-8) | 0.819 nM
29 | B5 | 0.573 nM
30 | Ac-CEH[d2Nal]R[Bta]ACPPKD[βAla]RRRRRRQRRR-NH2 (disulfide 1-8) | 0.781 nM
31 | B6 | 0.202 nM
32 | B7 | 0.425 nM
33 | B8 | 0.659 nM

What follows are binders tested against T4, human melanocortin receptor subtype 5 (hMC5-R) (human, UniProt P33032 1-325) (assay: [125I]-NDP-α-MSH competition, membranes).
T4 construct: whole, on cells; membranes of CHO-K1 cells
T4 sequence (P33032 whole entry): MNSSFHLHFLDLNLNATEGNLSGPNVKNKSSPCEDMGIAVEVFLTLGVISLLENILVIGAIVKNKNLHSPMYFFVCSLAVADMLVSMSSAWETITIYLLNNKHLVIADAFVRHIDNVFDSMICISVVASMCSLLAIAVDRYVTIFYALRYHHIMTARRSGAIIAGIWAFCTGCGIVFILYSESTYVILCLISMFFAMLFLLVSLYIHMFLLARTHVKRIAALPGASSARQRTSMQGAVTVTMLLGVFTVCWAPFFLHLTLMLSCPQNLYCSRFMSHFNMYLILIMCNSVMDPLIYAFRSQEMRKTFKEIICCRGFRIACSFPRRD

Row | Binder | Ki
34 | B1 | 48.3 nM
35 | B2 | 15.5 nM
36 | Ac-CEH[d2Nal]R[Bta]ACPPKD[βAla]GRRRRRQRRR-NH2 (disulfide 1-8) | 165 nM
37 | B3 | 19.3 nM
38 | B4 | 19.2 nM
39 | Ac-CEH[d2Nal]R[1Nal]ACPPKD[βAla]RRRRRRQRRR-NH2 (disulfide 1-8) | 88.8 nM
40 | B5 | 15.7 nM
41 | Ac-CEH[d2Nal]R[Bta]ACPPKD[βAla]RRRRRRQRRR-NH2 (disulfide 1-8) | 84 nM
42 | B6 | 5.53 nM
43 | B7 | 15.5 nM
44 | B8 | 78 nM
